Reference: the supplement of paper PMC10567573

B1: C10orf62 (parent)
chain: GHSHHSHHGHPSHQSHSLPNRRH

Variants of: B1
Experiment: protein stability index of a GFP-peptide fusion (GPS, HEK-293T) (PSI 1-6); higher = more stable
Settings: c terminus: native
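Further: lentivirally expressed fusions sorted by FACS into six bins by GFP to DsRed ratio, PSI derived from sequencing read proportions per bin multiplied by bin number.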

Point of comparison: GHSHHSHHGHPSHQSHSLPNRRC [H23C], protein stability index 2.68. Against it:
- GHSHHSHHGHPSHQSHSFPNRRH [L18F] — higher, 3.24
- GHSHHSHHGHPSHQSHSMPNRRH [L18M] — lower, 2.16
- GHSHHSHHGHPSHQSHSGPNRRH [L18G] — lower, 2.38
- GHSHHSHHGHPSHQSHSIPNRRH [L18I] — higher, 3.49
- GHSHHSHHGHPSHQSHSEPNRRH [L18E] — higher, 3.19
- GHSHHSHHGHPSHQSHSRPNRRH [L18R] — higher, 4.23
- GHSHHSHHGHPSHQSHSCPNRRH [L18C] — higher, 2.94
- GHSHHSHHGHPSHQSHSWPNRRH [L18W] — higher, 3.46
- GHSHHSHHGHPSHQSHSVPNRRH [L18V] — lower, 2.52
- GHSHHSHHGHPSHQSHSNPNRRH [L18N] — higher, 2.88
- GHSHHSHHGHPSHQSHSHPNRRH [L18H] — higher, 4.06
- GHSHHSHHGHPSHQSHSPPNRRH [L18P] — lower, 2.11
- GHSHHSHHGHPSHQSHSDPNRRH [L18D] — lower, 1.85
- GHSHHSHHGHPSHQSHSTPNRRH [L18T] — lower, 2.27
- GHSHHSHHGHPSHQSHSKPNRRH [L18K] — lower, 1.51
- GHSHHSHHGHPSHQSHSQPNRRH [L18Q] — higher, 3.76
- GHSHHSHHGHPSHQSHSAPNRRH [L18A] — higher, 3.18
- GHSHHSHHGHPSHQSHSYPNRRH [L18Y] — lower, 2.08
- GHSHHSHHGHPSHQSHVLPNRRH [S17V] — lower, 1.69
- GHSHHSHHGHPSHQSHWLPNRRH [S17W] — lower, 2.37
- GHSHHSHHGHPSHQSHTLPNRRH [S17T] — higher, 4.17
- GHSHHSHHGHPSHQSHYLPNRRH [S17Y] — higher, 4.98
- GHSHHSHHGHPSHQSHRLPNRRH [S17R] — higher, 4.84
- GHSHHSHHGHPSHQSHSLPNHRH [R21H] — lower, 2.67
- GHSHHSHHGHPSHQSHSLPNCRH [R21C] — higher, 4.2
- GHSHHSHHGHPSHQSHSLPNERH [R21E] — higher, 2.81
- GHSHHSHHGHPSHQSHSLPNKRH [R21K] — lower, 1.94
- GHSHHSHHGHPSHQSHSLPNSRH [R21S] — lower, 1.67
- GHSHHSHHGHPSHQSHSLPNPRH [R21P] — lower, 2.05
- GHSHHSHHGHPSHQSHSLPNNRH [R21N] — lower, 2.6
- GHSHHSHHGHPSHQSHSLPNQRH [R21Q] — lower, 2.38
- GHSHHSHHGHPSHQSHSLPNARH [R21A] — lower, 1.97
- GHSHHSHHGHPSHQSHSLPNTRH [R21T] — lower, 1.81
- GHSHHSHHGHPSHQSHSLPNMRH [R21M] — lower, 2
- GHSHHSHHGHPSHQSHSLPNDRH [R21D] — lower, 2.2
- GHSHHSHHGHPSHQSHSLPNVRH [R21V] — lower, 1.39
- GHSHHSHHGHPSHQSHSLPNIRH [R21I] — lower, 2.36
- GHSHHSHHGHPSHQSHSLPNGRH [R21G] — lower, 1.71
- GHSHHSHHGHPSHQSHSLPNYRH [R21Y] — lower, 2.17
- GHSHHSHHGHPSHQSHSLPNFRH [R21F] — lower, 2.13
- GHSHHSHHGHPSHQSHSLPNLRH [R21L] — lower, 1.81
- GHSHHSHHGHPSHQSHSLPNWRH [R21W] — lower, 2.43
- GHSHHSHHGHPSHQSHSLPNRRI [H23I] — higher, 2.78
- GHSHHSHHGHPSHQSHSLPNRRK [H23K] — higher, 4.73
- GHSHHSHHGHPSHQSHSLPNRRN [H23N] — higher, 3.15
- GHSHHSHHGHPSHQSHSLPNRRW [H23W] — lower, 2.25
- GHSHHSHHGHPSHQSHSLPNRRV [H23V] — lower, 2.35
- GHSHHSHHGHPSHQSHSLPNRRP [H23P] — lower, 2.31
- GHSHHSHHGHPSHQSHSLPNRRM [H23M] — lower, 2.18
- GHSHHSHHGHPSHQSHSLPNRRT [H23T] — higher, 2.88
- GHSHHSHHGHPSHQSHSLPNRRS [H23S] — higher, 2.88
- GHSHHSHHGHPSHQSHSLPNRRR [H23R] — higher, 4.71
- GHSHHSHHGHPSHQSHSLPNRRQ [H23Q] — lower, 2.48
- GHSHHSHHGHPSHQSHSLPNRRF [H23F] — higher, 2.77
- GHSHHSHHGHPSHQSHSLPNRRY [H23Y] — higher, 3.4
- GHSHHSHHGHPSHQSHSLPNRRA [H23A] — lower, 2.23
- GHSHHSHHGHPSHQSHSLPNRRL [H23L] — higher, 3.52
- GHSHHSHHGHPSHQSHSLPQRRH [N20Q] — lower, 1.94
- GHSHHSHHGHPSHQSHSLPERRH [N20E] — higher, 4.47
- GHSHHSHHGHPSHQSHSLPLRRH [N20L] — higher, 3.05
- GHSHHSHHGHPSHQSHSLPTRRH [N20T] — higher, 3.28
- GHSHHSHHGHPSHQSHSLPIRRH [N20I] — lower, 2.29
- GHSHHSHHGHPSHQSHSLPPRRH [N20P] — lower, 2.07
- GHSHHSHHGHPSHQSHSLPHRRH [N20H] — lower, 2.44
- GHSHHSHHGHPSHQSHSLPVRRH [N20V] — higher, 3.13
- GHSHHSHHGHPSHQSHSLPARRH [N20A] — higher, 2.97
- GHSHHSHHGHPSHQSHSLPDRRH [N20D] — higher, 3.58
- GHSHHSHHGHPSHQSHSLPMRRH [N20M] — higher, 3.84
- GHSHHSHHGHPSHQSHSLPSRRH [N20S] — lower, 1.35
- GHSHHSHHGHPSHQSHSLPFRRH [N20F] — lower, 2.31
- GHSHHSHHGHPSHQSHSLPYRRH [N20Y] — lower, 2.58
- GHSHHSHHGHPSHQSHSLPKRRH [N20K] — higher, 3.23
- GHSHHSHHGHPSHQSHSLPGRRH [N20G] — higher, 4.22
- GHSHHSHHGHPSHQSHSLPNRLH [R22L] — lower, 1.29
- GHSHHSHHGHPSHQSHSLPNRHH [R22H] — higher, 4.93
- GHSHHSHHGHPSHQSHSLPNRQH [R22Q] — higher, 2.69
- GHSHHSHHGHPSHQSHSLPNREH [R22E] — lower, 2
- GHSHHSHHGHPSHQSHSLPNRTH [R22T] — higher, 3.14
- GHSHHSHHGHPSHQSHSLPNRDH [R22D] — higher, 3.39
- GHSHHSHHGHPSHQSHSLPNRYH [R22Y] — lower, 2.11
- GHSHHSHHGHPSHQSHSLPNRGH [R22G] — lower, 2.15
- GHSHHSHHGHPSHQSHSLPNRKH [R22K] — higher, 4
- GHSHHSHHGHPSHQSHSLPNRSH [R22S] — higher, 3.94
- GHSHHSHHGHPSHQSHSLPNRAH [R22A] — higher, 3.28
- GHSHHSHHGHPSHQSHSLPNRWH [R22W] — higher, 2.86
- GHSHHSHHGHPSHQSHSLPNRMH [R22M] — higher, 3
- GHSHHSHHGHPSHQSHSLPNRPH [R22P] — higher, 3.56
- GHSHHSHHGHPSHQSHSLPNRFH [R22F] — higher, 2.84
- GHSHHSHHGHPSHQSHSLRNRRH [P19R] — lower, 2.09
- GHSHHSHHGHPSHQSHSLDNRRH [P19D] — higher, 3.02
- GHSHHSHHGHPSHQSHSLCNRRH [P19C] — higher, 2.95
- GHSHHSHHGHPSHQSHSLKNRRH [P19K] — lower, 2.15
- GHSHHSHHGHPSHQSHSLNNRRH [P19N] — lower, 2.4
- GHSHHSHHGHPSHQSHSLFNRRH [P19F] — lower, 2.38
